In patent US20220211860A1, “PEPTIDE DERIVATIVES AND CONJUGATES THEREOF FOR TREATING CANCER” (priority 2019, published 2022):

Columns and labels:
[1] = In vitro metabolic stability (release of free MMAE, LC/MS), human plasma; format: in vitro ADME; details: 1 μM, 37° C., 10 days
Procedure: (§1) FIG. 11: Stability of LHRHD-(mc-vc-PABC)-MMAE (i.e. LD5-mc-vc-PABC-MMAE) in human plasma, mouse plasma, and cell culture media (c-media). The stability was measured based on the presence of free MMAE detected in the samples by LC-MS at each time point relative to time 0. Error Bars are standard deviations (STDV), p>0.05 and n=9 (mean is calculated from samples in triplicate in 3 independent experiments).
(§2) The metabolic stability of LD5-(mc-vc-PABC)-MMAE was investigated in cell culture media (c-media), human and mouse plasma. An LC/MS method was developed to detect both free MMAE and the presence of any degraded species from the whole construct, LD5-(mc-vc-PABC)-MMAE. To evaluate the stability of the valine-citrulline linkage, LD5-(mc-vc-PABC)-MMAE at 1 μM was incubated in c-media, human and mouse plasma at 37° C. for a period of 10 days. Aliquots were taken at pre-determined time intervals (t=0, 1, 2, 4, 7, 10 days) and analysed by LC/MS for the release of free MMAE.

[2] = In vitro metabolic stability (release of free MMAE, LC/MS), mouse plasma; format: in vitro ADME; details: 1 μM, 37° C., 10 days
Procedure: as §1, §2

MDA-MB-231 [3] = assay: Receptor binding competitive assay (triptorelin pre-treatment, MTT); format: cell-based, human; details: MDA-MB-231 pre-treated with 100 µM of triptorelin (TRN) for 2 h
Procedure: FIGS. 5A and 5B: Receptor binding competitive assay. MDA-MB-231 was pre-treated with triptorelin (TRN) and LM (LD5-mc-vc-PABC-MMAE) then the MTT assay was performed. (A) The IC50 value (nM) was calculated by non-linear regression (curve fit) for PC-3 and MDA-MB-231 with and without pre-treatment with triptorelin. (B) The cell viability in TRN-LM was assessed in comparison to LM in MDA-MB-231 (TNBC cell line). The cytotoxic effects of LM is reversed after pre-treatment with triptorelin indicating a significant role of LHRH-Rs in the mechanism of action of LM. Two-way ANOVA was performed followed by Sidak's multiple comparisons test (***p<0.00001). Error bars are standard deviations (STDV), n=8 (3 independent repeats).
Receptor binding competitive assay was performed to examine the association of cytotoxicity with binding to LHRH-Rs. TNBC cells (MDA-MB-231) were pre-treated with 100 µM of triptorelin (TRN) for 2 h to block the LHRH-R. The significant cytotoxic effects of LD5-mc-vc-PABC-MMAE (LM) was reversed after pre-treatment with TRN (FIGS. 5A and 5B).

LHRH-R = target: T1, LHRH-R (Homo sapiens, UniProt P30968); assay: Duolink proximity ligation assay (PLA) in MDA-MB-231; format: binding
T1 construct: endogenous in cells; host or cells: MDA-MB-231
T1 sequence (P30968 1-328): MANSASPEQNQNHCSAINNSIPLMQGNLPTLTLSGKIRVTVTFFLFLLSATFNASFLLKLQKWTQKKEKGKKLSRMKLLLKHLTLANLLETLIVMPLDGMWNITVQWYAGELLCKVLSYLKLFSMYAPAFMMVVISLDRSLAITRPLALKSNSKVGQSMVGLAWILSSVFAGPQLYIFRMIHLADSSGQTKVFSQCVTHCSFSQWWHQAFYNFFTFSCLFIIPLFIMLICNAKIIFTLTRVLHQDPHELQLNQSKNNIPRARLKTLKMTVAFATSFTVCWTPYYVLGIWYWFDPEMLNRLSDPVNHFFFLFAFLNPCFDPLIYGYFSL
Procedure: FIG. 6: Proximity ligation assay was used to show the protein-protein interaction between LHRH-R and LHRH in MDA-MB-231 (TNBC cell model) treated with LD5-me-vc-PABC-MMAE (1 μM) compared to negative control (PBS). Stained nucleus (DAPI blue) and PLA signal (TexasRed) were detected by LEICA SPE2 confocal LSM.
The binding affinity of the LD5-me-vc-PABC-MMAE conjugate to LHRH receptors was investigated by DuoLink assay.
Proximity ligation assay (PLA) was used to determine the interaction between LHRH-R and LHRH in LD5-mc-vc-PABC-MMAE treated cells. Duolink® Proximity Ligation Assay (PLA) allows in situ detection of endogenous proteins, protein modifications, and protein interactions with high specificity and sensitivity. Protein targets can be readily detected and localized with single molecule resolution in unmodified cells and tissues. Typically, two primary antibodies raised in different species are used to detect two unique protein targets. PLA reagents were added to the fixed MDA-MB-231 cells after incubating these cells with the primary antibody specific for LHRH-R and LHRH.

[4] = In vitro stability (release of free MMAE, LC/MS), cell culture media; format: in vitro ADME; details: c-media, 1 μM, 37° C., 10 days
Procedure: as §1, §2

MDA-MB-231 [5] = assay: Uptake after silencing LHRH-R gene in MDA-MB-231; format: cell-based, human; details: MDA-MB-231, LHRH-R siRNA, 1 μM, 18 h
Procedure: FIGS. 10A and 10B: Uptake of LD5-me-vc-PABC-MMAE (LM) after silencing LHRH-R in MDA-MB-231 cells. The cells were treated with LHRH-R siRNA and co-transfected with fluorescent labelled siRNA negative control as transfection efficiency signal (FAM-transfection control). LHRH-R negative control refers to MDA-MB-231 cells that were not transfected with LHRH-R siRNA and FAM-transfection control. (A) Silenced LHRH-R cells and negative control cells were treated with LM (1 μM) for 18 h and LM signal was detected by immunocytochemistry with specific LHRH binding of primary antibody labelled by Rhodamine-conjugated secondary antibody. Immunocytochemical images were captured by LEICA SPE2 confocal LSM. (B) The LM signal intensity in both silenced LHRH-R and negative control was measured by Fiji J software. […] The data was analysed by unpaired t-test with Welch's correction (**** p<0.0001). Error bars are standard deviations (STDV), n=8 (3 independent repeats).
To further examine the role of LHRH-R in the uptake of LD5-me-vc-PABC-MMAE, LHRH-R expression was blocked by silencing their gene in MDA-MB-231 (TNBC cell model). This study was performed by co-transfection of siRNAs (RNAi-Mate transfection reagent and siRNA, GNRHR-homo-2242, GNRHR-homo-2701, and scrambled RNA were from GenePharma) and a fluorescently labelled negative control siRNA (FAM transfection efficiency control was from GenePharma).

CCNC(=O)[C@@H]1CCCN1C(=O)[C@H](CCCNC(=N)N)NC(=O)[C@H](CC(C)C)NC(=O)[C@@H](CCCCNC1CC(=O)N(CCCCCC(=O)N[C@H](C(=O)N[C@@H](CCCNC(N)=O)C(=O)Nc2ccc(COC(=O)N(C)[C@H](C(=O)N[C@H](C(=O)N(C)[C@@H]([C@@H](C)CC)[C@@H](CC(=O)N3CCC[C@H]3[C@H](OC)[C@@H](C)C(=O)N[C@H](C)[C@@H](O)c3ccccc3)OC)C(C)C)C(C)C)cc2)C(C)C)C1=O)NC(=O)[C@H](Cc1ccc(O)cc1)NC(=O)[C@H](CO)NC(=O)[C@H](Cc1c[nH]c2ccccc12)NC(=O)[C@H](Cc1c[nH]cn1)NC(=O)[C@@H]1CCC(=O)N1 (some centres unmarked) [LD5-mc-vc-PABC-MMAE]
total drug released as MMAE [1]: less than 3% | total drug released as MMAE ([1]; listed as LHRHD-(mc-vc-PABC)-MMAE): around 3% | total drug released as MMAE [2]: less than 5% | cytotoxic effects after pre-treatment with triptorelin (MDA-MB-231 [3]): reversed | binding affinity to LHRH receptors (DuoLink assay) (LHRH-R; MDA-MB-231, 1 μM): high binding affinity | interaction between LHRH-R and LHRH (PLA signal) (LHRH-R; fixed MDA-MB-231 cells, qualitative): confirmed interactions between LHRH-R and its ligand | total drug released as MMAE [4]: less than 3% | uptake after silencing the LHRH-R gene (MDA-MB-231 [5]): significantly reduced
